The values that follow come from article PMC4330348, “Identification of protein complexes that bind to histone H3 combinatorial modifications using super-SILAC and weighted correlation network analysis” (Nucleic Acids Research, 2015).

For this test, the target named is T1, histone H3 peptide aa1–20 trimethylated at K9 (H3K9me3) (UniProt P68431 2-21, trimethyl-lysine at K9; biotin attached to the C-terminus via a glycine-lysine linker).
T1 construct: histone H3 N-terminal tail, aa1–20; glycine-lysine linker (told in words), carries the biotin; also called H3K9me3 modified H3 1–20 peptide; source: synthetic peptide (GL biochem)
Briefly: affinity purification with mass spectrometry; biotinylated histone H3 peptides on NeutrAvidin beads; pooled nuclear and MNase-solubilised chromatin extracts of SILAC-labelled MPC11 cells adjusted to 150 mM NaCl, 4°C; washes with 150 mM KCl, 0.2% Triton X-100; heavy pulldowns against a mixed light reference (super-SILAC); beads alone as control; two replicates. The note with it: one partner purified.

B1: Suz12 (natural protein, mouse (endogenous in MPC11), UniProt Q80U70 1-741, looked up)
chain: MAPQKHGGGGGGGSGPSAGSGGGGFGGSAAAVAAAASGGKSGGGGCGGGGSYSASSSSAAAAAAAAGAAVLPVKKPKMEHVQADHELFLQAFEKPTQIYRFLRTRNLIAPIFLHRTLTYMSHRNSRTSIKRKTFKVDDMLSKVEKMKGEQESHSLSAHLQLTFTGFFHKNDKPSQNSENEQNSVTLEVLLVKVCHKKRKDVSCPIRQVPTGKKQVPLNPDLNQTKPGNFPSLAVSSNEFEPSNSHMVKSYSLLFRVTRPGRREFNGMINGETNENIDVSEELPARRKRNREDGEKTFVAQMTVFDKNRRLQLLDGEYEVAMQEMEECPISKKRATWETILDGKRLPPFETFSQGPTLQFTLRWTGETNDKSTAPVAKPLATRNSESLHQENKPGSVKPAQTIAVKETLTTELQTRKEKDNSNESRQKLRIFYQFLYNNNTRQQTEARDDLHCPWCTLNCRKLYSLLKHLKLCHSRFIFNYVYHPKGARIDVSINECYDGSYAGNPQDIHRQPGFAFSRNGPVKRTPITHILVCRPKRTKASMSEFLESEDGEVEQQRTYSSGHNRLYFHSDTCLPLRPQEMEVDSEDEKDPEWLREKTITQIEEFSDVNEGEKEVMKLWNLHVMKHGFIADNQMNHACMLFVENYGQKIIKKNLCRNFMLHLVSMHDFNLISIMSIDKAVTKLREMQQKLEKGESATPSNEEIAEEQNGTANGFSETNSKEKALETDGVSGVPKQSKKQKL
notes: Suz12, mouse; also called PRC2 complex member; source: endogenous, MPC11 nuclear and chromatin extract
For the molecule B1, the “fold binding relative to the H3K27me3 peptide” value was about 3 fold.

B2: Ezh2 (enzyme)
chain: not shown
notes: Ezh2, mouse; also called PRC2 complex member; source: endogenous, MPC11 nuclear and chromatin extract
B2: the “fold binding relative to the H3K27me3 peptide” value was about 3 fold.

B3: Eed (natural protein)
chain: not shown
notes: Eed, mouse; also called PRC2 complex member; source: endogenous, MPC11 nuclear and chromatin extract
On to B3, for which the “fold binding relative to the H3K27me3 peptide” value is about 3 fold.
